The source of these data is article PMC9436932 (Scientific Reports, 2022).

This series concerns the molecule itself. The experiment in a line: SEC. On the technique in general: SEC sorts molecules by how far they enter the pores of the column.

B1: TatB^22–171 (soluble membrane-extrinsic cytoplasmic domain of E. coli TatB, transmembrane helix residues 1–21 deleted) (domain or fragment, UniProt P69425 22-171, looked up)
chain: PQRLPVAVKTVAGWIRALRSLATTVQNELTQELKLQEFQDSLKKVEKASLTNLTPELKASMDELRQAAESMKRSYVANDPEKASDEAHTIHNPVVKDNEAAHEGVTPAAAQTQASSPEQKPETTPEPVVKPAADAEPKTAAPSPSSSDKP
notes: also called membrane-extrinsic domain of TatB; soluble TatB
B1: the binding result is recorded as “binds”.
